Results as given in the nanobody polyreactivity screen of Harvey et al. (2022).

assay: yeast display, Sf9 membrane polyspecificity reagent, FACS + sequencing; frameworks hold sequencing errors
How it was run: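 In a synthetic yeast display library (Saccharomyces cerevisiae BJ5465), nanobody expression was induced with galactose for 36–48 hours. FACS gates were set low and high (top ~1%) using anti-HA fluorescence for expression and streptavidin fluorescence for binding of the Sf9 membrane reagent. Each polyreactivity label is drawn from the gate of origin.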

| Sequence | polyreactivity (PSR sort gate) |
| --- | --- |
| QVQLVESGGGLVQAGGSLRLSCAASGSIFGVYAMGWYRQAPGKERELVAVITYRDGSTYYADSVKGRFTISRVNAKNTVYLQMNSLKPEDSAVYYCAADSYLGWHSDYGVEYYYWGQGTQVTVSS | low polyreactivity |
| QVQLVESGGGLVQAGGSLRLSSAASGLTFQEYAMGWYRQAPGKERELVAAISWSGGSTYYADSVKGRFTISRDNAKNTVYLQMNSLKPEDTAVYYCAAEAYEEYITGWYAYDYWGQGTQVTVSS | high polyreactivity |
| QVQLVESGGGLVQAGGSLRLSCAASGIIFQPYTMGWYRQAPGKERELVAAISYSGGSTYYADSVKGRFTISRDNAKNTVYLQMNSLKPEDTAVYYCAARRYPYSGTHRGFYYWGQGTQVTVSS | high polyreactivity |
| QVQLVESGGGIVQAGGSLRLSCAASGRTFKSYAMGWYRQAPGKERELVAAISRSGDRTYYADSVKGRFTISRDNAKNTVYLQMNSLKREDTAVYYCNARAVTGDRSDDYWGQGTHVTVSS | high polyreactivity |
| QVQLVESGAGLVQAGGSLRLSCAASGSTFGKYAMGWYTQAPGKEMELVARIDSGDGTYYADSVKGRFTISRDNAKNTVYLQMNSLKPEDTAVYYCAARYGARRLTYFWPQYARYDYWGQGTKVTVSS | high polyreactivity |
| QVQLVESGGGLVQAGGSLRLSCAASGRTFRVYAMGWDRQAPGKERELVAAISGRGGSTYYADSVKGRFSISRDNAMNTVYLQMNSLKPEDTAVDYCAKSNPYLRLGEGNYWGQGTQVTVSS | high polyreactivity |
| QVHLVESGGGLVQAGGSLRLSCAASGITVGSYAMGWYRQAPGKERELVAAITSGGGTNYADSVKGRFTISRDNAKNTVYLEMKSLKPEDTAVYYCAARYYYLGTRYGYWGQGTQVTVSS | low polyreactivity |
| QVQLVESGGGLVQAGGSLRLSCAASGFTFRRNAMGWYRQAPGKERELVAAITYNGGTTYYADSVKGRFTISRDYAKNTVYLQMNSLKPVDTAVYYCNAPYGRQGYDYWGQGTQVTVSS | low polyreactivity |
| QVQLVESGGGLVQAGGSLRLSCAASGGIFGAYAMGWYRQAPGKERELVAASDLTDGDTYYADSVKGRFTSSRDNAKNTVYLQMNSLKPEATAVYYCAAEALYWVVDALDYEGDYWGQGTQVTVSS | high polyreactivity |
| QVQLVESGGGLVQAGGSIRLSCAASGRTFYPNAMGWYRQAPGKERELVAVISSGGNTDYADSVKGRFTISRDNAKNTVYLQMYSLKPEDTAVYYCNTDTTVVSHYRSYWWGAGYDYWGQGTQVTVSS | low polyreactivity |
| QVQLVESGGGLVQAGGSLRLSCAASGITFPRNAMGWYRQAPGKERELVAAISARGGNTYYADSVKGRFTISRDNSKNNVYLQMNSLKPEDTAVYFCNALGSSYSEPSEYDYWGQGTQVTVSS | low polyreactivity |
| QVQLVESGGGLVQEGGSLRLSCAASGSIFYNAMGWTRQAPGKERELVAAISSRGASTYYADSVKGRFTISRDNAKNTVYLLMNSLKPEDTAVYYCAKDNRYPYPSGLDYWGQGTQVTVSS | high polyreactivity |
| QVQLEESGGGLVQAGGSLRLSCAASGSTFFLYAMGWYRQAPGKERELVAAITYTDGDTYYADSVKGRFTISRDNAKNTVYLQMNSLKPEDTAVYYCNAGGDEPVYGSGYDYWGQGTQVTVSS | low polyreactivity |
| QVQLVESGGGLVQAGGSLRLSCAASGVIFLWYAMGWYRQAPGKERELVARISNGGSTYYADSVKGRFTISRDNAKNTVYLQMISLKPEDTAVYYCNKVYYWIAYGHRSYLMDYWGQGTQVTVSS | high polyreactivity |
| QVQLVESVGGLLQAGGTLRLSCAASGITFLDYGRGWYRQATGKERELVATINSGGSTNYADSVKGRFTISRDNAKHTVYLLMNSLKAEDTAVYYCDADYGSDYPKGDYWGQGTQVTVTS | low polyreactivity |
| QVQLVESGGGLVQAGGSLRLSCAASGSIFYTYVMGWYRPAPGKERELVAVISWSSTSTYYADSVKGRFTISRDNAKKTVYLQMNSLKPEDTAVYYCAAGVHRYRPGHGYDDGGYYWGQGTQVTVSS | low polyreactivity |
| QVQLVESGGGLVQEGGSLRLSCAASGSTFTPYAMGWYRQAPGKERELVAGITGNGGSTRYADSVKGRFTISRDNEKNTVYLQMKSLKTEDSAVYYCAARWTRQRYRTSYYAWGQGTQVTVSS | high polyreactivity |
| QVQLQESGGRMVQAGGSLRLSCAASGYISWADYKGWYRQAPGKERELVAGIGYGSTTYYADSVKGRFTISRDNAKNTSYLQMNSLKPEDTAVYYCAVGWYRDSAYKYWGQGTQVTVSS | low polyreactivity |
| QVQLVESGGGLVQAGGSLRLSCAASGRTFYYNTMGWYRQAPGKERELVATISRIGGSTYYADSVKGRFTISRDNAKNTVYLQMNSLKPEDTAVYYCAKGRSLNGRPPVVYWQLFYYWGQGTQVTVSS | high polyreactivity |
| QVQLVESGGGLVQAGGSLRLSCAASGRTSRVYAMGWYRQAPGKERELVAAITWRGGNTYYADSVKGRFTISRDNAKNTVYLQMNSLKPEDTAVYYCAADKYTHKPHGDYWGQGTQVTVSS | high polyreactivity |

| Sequence | polyreactivity (PSR sort gate) |
| --- | --- |
| QVQLQESGGGLVQAGGSLSLRCSASRNITRSSDLGWYHQAPGKEREFVASITSGGTTYYADSVKGRFTISRDNAKNTVYLEMNSLKPEDTAVYYCAVGDQADAEFGYWGQGTQVTVSS | low polyreactivity |
| QVQLVESGGGLVQAGGSLRLSCAASGSTFDWYVMGWDRQAPGKERELVADITWSGDSTYYADSVKGRFTISRDNAKNTVYLQMNSLKPEDTAVYYCAADAYTLFYFYVYEYNYWGQGTQVTVSS | high polyreactivity |
| QVQLVESGGGLVQAGGSLRLSCAASGFIFYYYAMGWYRQAPGKERELVAAISSRGGITYYADSVKGRFTISRDNAKNTVYLQMNSLKPEDTAVYYCAVDFRPGYDYWGQGTQVTVSS | low polyreactivity |
| QVQLVESGGGLVQAGGSLRLSCAASGSIFAFNAMGWYRQAPGKERELVAAITRSGGRTFYADSVKGRFTISRDNAKNTVYLQMNSLKPEDTAVYYCAASEWRFSSYGGVKYYVEYDYWGQGTQVTVSS | high polyreactivity |
| HVQLVESGGGLVQAGGSLRLSCAASGSIYGGNTMGWYRQAPGKERELVAAISRSGGSTYYADSVKGRFTISRDNAKNTVYLQMNSLKREDTAVYYCKRKQAGHGQGYDYWGQGTQVTVSS | high polyreactivity |
| QVQLVESVGGLVQAGGSLRLSCAASGFTIGYNFMGWYRQAPGKERELVATISWNGARTYYADSVKGRFTISRDNAKNTVYLQMNSLKPEDTAVYYCAARRYYRGEYDYWGQGTQVTVSS | low polyreactivity |
| QVQLVESGGGLVQAGGSLRLSCAASGFTFQYYAMGWYRQAPGKERELVAAISWSGGRTYYADSVKGRFTISRDIAKNTVYLQLNSLKPEDNAVYYCAASYIVYPARYEDEGDYWGQGTQVTVSS | high polyreactivity |
| QVQLVESGGGLVQAGGSLRLSCAASGFIFDVYAMGWYRQAPGNERELVATISSGDSTYYADSVKGRFTISRDNAKNTVYLQMNSLKPEDTAVYYCNTTEHKYVSSFEYGYWGQGTQVTVSS | low polyreactivity |
| QVQLVESGGGLVQAGGSLRLSCAASGSISFINAMGWYRQAPGKERELVAAISGSGGSTYYADSVKGRFTISRDNAKNTVYLQMNSLKPEDTAVYYCAADYRIHWYIAYGYWGQGTQVTVSS | low polyreactivity |
| QVQLVESGGGLVQAGGSLRLSCAASGSIFRYNAMGWYRKAPGKERELVAAIRSGGSTYYADSVKGRFTISRDNAKNTVYLQMNSLKPEDTAVYYCNARRYVGYDYWGQGTQVTVSS | high polyreactivity |
| QVQLVESGAGLVQAGGSLRLSCAASGITFGRYTMGWYRQAPGKERELVAAITNGDITYYADSVKGRFTISRDNAKNTVYLQMNSLKPEDTAVYYCAADRSFWYDYWGQGTQVTVSS | high polyreactivity |
| QVQLVESGGGLVQEGGSLRLSCAASGSTFYSNAMGWYRQARGKEREFLAAISWSGGSTYYADSVKGRFTISRDNAKNTVYFQMNSLKPEDTAVYYCAKKPYYYAFCGYGYWGQGSQVTVSS | high polyreactivity |
| QVQLVESGGGLVQAGGSLRLSSAASGSIFVLYAMGWYRQAPGKERELVAAIDVGGGSTYYADSVKGRFTISRDNAKNTVYLQMNSLKPEDTAVYYCAAELYYTYRWYDYWGQGTQVTVSS | high polyreactivity |
| QVQLVESGGGLVQAGGSLRLSCAASGSTFEYNAMGWYRQAPGKERELVASSTNYAEAVKGRFTISRDNAKNTVYLQMNCLKPVDTAVYYCAREQGVNRNHDYWGQGTQVTVSS | low polyreactivity |
| QVQLVESGGGLVQAGGSLRLSCAASGSTFTYYAMGWYRQAPGKEREFVATIRRSGGRTNYADSVKGRFTISRDNAKNTVYLQMNSLKPEDTAVYYCNARYTNVRGFDYWGQGTQVTVSS | high polyreactivity |
| QVQLVESGGGLVQAGGSLRLSCAASGRIFYTYAMGWYRQAPGKERELVAAINYSSASTYYADSVKGRFTISRDNAKNTVYLQMNSLKPEDTAVYYCNVAYVYGSFRRRPMGYWGQGTQVTVSS | high polyreactivity |
| QVQLLESGGGLVQAGGSLRLSCAASGSTFDRYAMGWNRQAPGKEREFVAAITWGGGSTYYADSVKGRFTISRDNAKNTVYLKFNSLKPEDTAVYYCATRYGASFGYWVQGTQVTVSS | low polyreactivity |
| QVQLVESGGGLVQAGGSLRLSCAASGSIFLYNAMGWYRQAPGKERELVAAISASGGSTYYADSVKGRFTISRDNAKNTVYLQMNSLKPEDTEVYFCAAQYSDYDGFTWPLPPRYDYWGQGTQVTVSS | high polyreactivity |
| QVQLVESGGGLVQAGGSLRLSCAASGSIFSWNAMGWYRQAPGKERELVAAISTRGSSTYYADSVKGRFTISRDNAKNTVYLQMNSLKPEDTAVYYCNAARTFPFYWGLRGSQRYDYWGQGTQVTVSS | high polyreactivity |
| QVQLVESGGGLVQAGGSLRLSCAASGSTFDIYVMGWYRQAPGKESELVAAISRVGNTSYADSVKGRFTISRDNAKNTVNLQMNSLKPEDTAVYYCAADAPSWYDRQYDYWGQCTQVTVSS | low polyreactivity |
